Experimental findings from article PMC4714923 are described below.

The test deals with T1, Hsp72 C-terminal tracer (Fam-…) (human).
T1 chain: GSGPTIEEVD
Kind of test: fluorescence polarisation. Particulars: remark: other sources report otherwise.

B1: Human FKBP51 (51-kDa FK506-binding protein), Q13451 1-457 (natural protein)
chain: MTTDEGAKNNEESPTATVAEQGEDITSKKDRGVLKIVKRVGNGEETPMIGDKVYVHYKGKLSNGKKFDSSHDRNEPFVFSLGKGQVIKAWDIGVATMKKGEICHLLCKPEYAYGSAGSLPKIPSNATLFFEIELLDFKGEDLFEDGGIIRRTKRKGEGYSNPNEGATVEIHLEGRCGGRMFDCRDVAFTVGEGEDHDIPIGIDKALEKMQREEQCILYLGPRYGFGEAGKPKFGIEPNAELIYEVTLKSFEKAKESWEMDTKEKLEQAAIVKEKGTVYFKGGKYMQAVIQYGKIVSWLEMEYGLSEKESKASESFLLAAFLNLAMCYLKLREYTKAVECCDKALGLDSANEKGLYRRGEAQLLMNEFESAKGDFEKVLEVNPQNKAARLQISMCQKKAKEHNERDRRIYANMFKKFAEQDAKEEANKAMGKKTSEGVTNEKGTDSQAMEEEKPEGHV
modifications: here or on the partner: 5-carboxyfluorescein (5-Fam) on the N-terminus via a 6-carbon spacer (aminohexanoic acid)
B1 had a Kd of more than 75 µM.
